The values below come from patent US20250059270A1.

The target of assay [1] is hyper IL-6. The assay is described as follows: cell-based or functional assay.
In assay [2] the target is human IL-6R on HEK-Blue IL6 reporter cells (human) (UniProt P08887). Briefly: cell-based or functional assay.
Chain of human IL-6R on HEK-Blue IL6 reporter cells (human) (P08887 20-468): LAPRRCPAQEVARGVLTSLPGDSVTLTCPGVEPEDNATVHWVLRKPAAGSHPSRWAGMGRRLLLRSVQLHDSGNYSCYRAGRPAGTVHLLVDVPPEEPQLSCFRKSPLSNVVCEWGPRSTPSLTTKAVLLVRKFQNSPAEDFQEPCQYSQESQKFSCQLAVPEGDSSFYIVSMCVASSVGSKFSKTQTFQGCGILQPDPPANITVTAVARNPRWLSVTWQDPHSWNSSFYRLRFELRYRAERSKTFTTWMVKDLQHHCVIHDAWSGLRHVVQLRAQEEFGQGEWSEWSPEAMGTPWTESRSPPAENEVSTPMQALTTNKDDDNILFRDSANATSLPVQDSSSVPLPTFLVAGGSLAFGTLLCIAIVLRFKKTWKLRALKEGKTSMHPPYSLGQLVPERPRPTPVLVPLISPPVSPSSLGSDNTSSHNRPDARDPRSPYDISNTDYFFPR

B1: Tocilizumab (antibody, part only; not given: constant regions, V domains shown, not shown: another chain or arm of the molecule)
VH: QVQLQESGPGLVRPSQTLSLTCTVSGYSITSDHAWSWVRQPPGRGLEWIGYISYSGITTYNPSLKSRVTMLRDTSKNQFSLRLSSVTAADTAVYYCARSLARTTAMDYWGQGSLVTVSS
VL: DIQMTQSPSSLSASVGDRVTITCRASQDISSYLNWYQQKPGKAPKLLIYYTSRLHSGVPSRFSGSGSGTDFTFTISSLQPEDIATYYCQQGNTLPYTFGQGTKVEIK
Consider B1, for which, in assay [1], the trans-signaling, HEK-Blue IL6 cells, 200 pM hyper IL-6 is > 1 µM. In assay [2], this molecule showed an IC50, HEK-Blue IL6 reporter cells, 20 pM IL-6 of 1490 pM; an IC50, cis-signaling, HEK-Blue IL6 cells, 20 pM free IL-6 of 12.9 nM; an IC90, HEK-Blue IL6 reporter cells, 20 pM IL-6 of 23700 pM.
